Consider one substance from article PMC10973503.

The assay has as its target α-synuclein (α-syn) 1-140 (UniProt P37840). The assay is described as follows: WT-PFF-seeded ThT fibrillation kinetics, NS-TEM. The note with it: reference: unmodified WT monomer plus WT PFF; sites S87.

As for “α-synuclein (α-syn) 1-140 (from UniProt P37840) pS87 monomer plus WT PFF”, the “binding against the reference” value was “weaker”.
